Test results: patent publication US20230322953A1 (HARBOUR BIOMED SHANGHAI, published 2023)
Like-named read-outs stand apart in the source and are kept apart here.

Columns and labels:
[1] = molecular target: T1, human BCMA on NCI-H929 cells (ATCC, CRL-9068) (human, UniProt Q02223 1-184); assay: cell-based or functional assay
T1 sequence (looked up): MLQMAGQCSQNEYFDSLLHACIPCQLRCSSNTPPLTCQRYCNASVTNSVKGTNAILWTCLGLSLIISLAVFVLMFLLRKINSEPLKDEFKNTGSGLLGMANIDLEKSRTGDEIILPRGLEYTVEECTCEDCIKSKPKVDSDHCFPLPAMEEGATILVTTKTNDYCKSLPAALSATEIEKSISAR

[2] = molecular target: T1, human BCMA on NCI-H929 cells (ATCC, …); assay: cell-based or functional assay; remark: listed apart in the source
[3] = molecular target: T1, human BCMA on NCI-H929 cells (ATCC, …); assay: cell-based or functional assay; remark: listed apart in the source
[4] = molecular target: T1, human BCMA on NCI-H929 cells (ATCC, …); assay: cell-based or functional assay; remark: listed apart in the source
[5] = molecular target: T2, cynomolgus monkey BCMA (ACRO Biosystems, #BCA-C82F4) (cynomolgus monkey, UniProt A0A2K5UD97 1-53); assay: BLI (Octet Red96e), cyBCMA.Fc
T2 construct: Bought protein; also called cyBCMA.Fc
T2 sequence (A0A2K5UD97 entry or part of it): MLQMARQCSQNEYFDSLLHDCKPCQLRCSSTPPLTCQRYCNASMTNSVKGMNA

[6] = molecular target: T3, cynomolgus monkey CD3 (TCR/CD3 complex) on cynomolgus monkey T cells (cynomolgus monkey); assay: flow cytometry (FACS) on cynomolgus monkey T cells
T3 construct: whole, on cells
T3 sequence (Q95LI5 22-198, one chain of several): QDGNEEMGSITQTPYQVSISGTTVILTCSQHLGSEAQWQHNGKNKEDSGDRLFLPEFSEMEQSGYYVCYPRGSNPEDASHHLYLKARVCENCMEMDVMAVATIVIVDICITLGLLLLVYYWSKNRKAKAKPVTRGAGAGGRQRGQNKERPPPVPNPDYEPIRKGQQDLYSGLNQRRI

[7] = molecular target: T4, human CD3 (TCR/CD3 complex) on human T cells (human, UniProt P07766 23-207); assay: flow cytometry (FACS) on human T cells, Experiment 3
T4 construct: whole, on cells
T4 sequence (P07766 23-207, one chain of several): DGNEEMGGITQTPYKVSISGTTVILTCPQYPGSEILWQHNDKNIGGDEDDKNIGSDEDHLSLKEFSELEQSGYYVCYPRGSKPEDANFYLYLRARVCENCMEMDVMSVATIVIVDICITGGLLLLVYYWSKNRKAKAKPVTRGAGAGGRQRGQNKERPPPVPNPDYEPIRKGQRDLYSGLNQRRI

[8] = molecular target: T5, biotinylated human BCMA-Fc, Avitag recombinant protein (ACRO Biosystems, #BC7-H82F0) (human, UniProt Q02223 1-54, biotinylated (Avitag)); assay: BLI (Octet Red96e), biotinylated BCMA-Fc on SA sensor, 1:1 global fitting;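 further: Anti-BCMA antibodies analysed as binding partners of the captured BCMA antigen, with reference signals removed by double referencing before kinetic fitting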
T5 construct: extracellular domain; Bought protein; also called huBCMA.Fc; recombinant human BCMA-ECD-Fc
T5 sequence (looked up): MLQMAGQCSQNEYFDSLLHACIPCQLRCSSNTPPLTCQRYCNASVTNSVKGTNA

IFN-γ release, EC50 [1]: 0.483 nM
IFN-γ release, Maximum [1]: 1020 pg/mL
IL-2 release, EC50 [1]: 2.27 nM
IL-2 release, Maximum [1]: 21.5 pg/mL
IL-6 release, EC50 [1]: 13.1 nM
IL-6 release, Maximum [1]: 245 pg/mL
IL-10 release, EC50 [1]: 0.861 nM
IL-10 release, Maximum [1]: 583 pg/mL
TNF-α release, EC50 [1]: 0.464 nM
TNF-α release, Maximum [1]: 608 pg/mL
IFN-γ release, EC50 [2]: 0.261 nM
IFN-γ release, Maximum [2]: 658 pg/mL
IL-2 release, EC50 [2]: 0.312 nM
IL-2 release, Maximum [2]: 25.8 pg/mL
IL-6 release, EC50 [2]: 0.341 nM
IL-6 release, Maximum [2]: 71.4 pg/mL
IL-10 release, EC50 [2]: 0.335 nM
IL-10 release, Maximum [2]: 190 pg/mL
TNF-α release, EC50 [2]: 0.224 nM
TNF-α release, Maximum [2]: 1020 pg/mL
binding result [5]: no binding
Maximum MFI [6]: 1110 MFI
Maximum MFI [7]: 6850 MFI
Kd [8]: 0.0452 nM
koff [8]: 2.46e-05 s⁻¹
kon [8]: 545000 M⁻¹ s⁻¹
B1: PR002199, BCMA × CD3 bispecific antibody derived from WO2019133761A1 (bispecific antibody, human IgG1, kappa, L234A L235A)
chain 1: not shown
chain 2: EVQLVESGGGLVQPGRSLRLSCAASGFTFDDYAMHWVRQAPGKGLEWVSGISWNSGSIGYADSVKGRFTISRDNAKNSLYLQMNSLRAEDTALYYCAKDSRGYGDYRLGGAYWGQGTLVTVSSASTKGPSVFPLAPSSKSTSGGTAALGCLVKDYFPEPVTVSWNSGALTSGVHTFPAVLQSSGLYSLSSVVTVPSSSLGTQTYICNVNHKPSNTKVDKKVEPKSCDKTHTCPPCPAPEAAGGPSVFLFPPKPKDTLMISRTPEVTCVVVDVSHEDPEVKFNWYVDGVEVHNAKTKPREEQYNSTYRVVSVLTVLHQDWLNGKEYKCKVSNKALGAPIEKTISKAKGQPREPQVYTLPPCREEMTKNQVSLWCLVKGFYPSDIAVEWESNGQPENNYKTTPPVLDSDGSFFLYSKLTVDKSRWQQGNVFSCSVMHEALHNHYTQKSLSLSPGK
chain 3: EVQLLESGGGLVQPGGSLRLSCAASGFTVSSYGMSWVRQAPGKGPEWVSGIRGSDGSTYYADSVKGRFTISRDNSKNTLYLQMNSLRAEDTAVYYCAKQGENDGPFDHRGQGTLVTVSSGGGGSEVQLLESGGGLVQPGGSLRLSCAASGFTVSSYGMSWVRQAPGKGPEWVSGIRGSDGSTYYADSVKGRFTISRDNSKNTLYLQMNSLRAEDTAVYYCAKQGENDGPFDHRGQGTLVTVSSASEPKSSDKTHTCPPCPAPEAAGGPSVFLFPPKPKDTLMISRTPEVTCVVVDVSHEDPEVKFNWYVDGVEVHNAKTKPREEQYNSTYRVVSVLTVLHQDWLNGKEYKCKVSNKALGAPIEKTISKAKGQPREPQVCTLPPSREEMTKNQVSLSCAVKGFYPSDIAVEWESNGQPENNYKTTPPVLDSDGSFFLVSKLTVDKSRWQQGNVFSCSVMHEALHNHYTQKSLSLSPGK
notes: Three polypeptide chains; also called Positive control 2
NCI-H929 killing, EC50 [1]: 0.16 nM
NCI-H929 killing, Maximum killing rate % [1]: 61.2%
NCI-H929 killing, EC50 [2]: 0.115 nM
NCI-H929 killing, Maximum killing rate % [2]: 62%
Killing EC50 (nM), PBMC + NCI-H929, + 10 ng/mL sBAFF [3]: 0.063 nM
Killing EC50 (nM), PBMC + NCI-H929, + 10 ng/ml sAPRIL [3]: 0.096 nM
Killing EC50 (nM), PBMC + NCI-H929, + 100 ng/mL sBAFF [3]: 0.076 nM
Killing EC50 (nM), PBMC + NCI-H929, + 100 ng/ml sAPRIL [3]: 0.253 nM
Killing EC50 (nM), PBMC + NCI-H929, no soluble ligand [3]: 0.103 nM
Killing EC50 (nM), PBMC + NCI-H929, + 62.5 ng/ml sBCMA [4]: 0.8 nM
Killing EC50 (nM), PBMC + NCI-H929, + 125 ng/ml sBCMA [4]: 1 nM
Killing EC50 (nM), PBMC + NCI-H929, + 250 ng/ml sBCMA [4]: 3.5 nM
Killing EC50 (nM), PBMC + NCI-H929, + 500 ng/ml sBCMA [4]: 7.7 nM
Killing EC50 (nM), PBMC + NCI-H929, no sBCMA [4]: 0.2 nM
